# Test results published in PMC4728371 (Genome Research, 2016).
# Biological target: the molecule itself
# Test: SEC-MALS
protein,measurement,value
"ZAK LZ-SAM (residues 286-410), purified (domain or fragment, human, UniProt Q9NYL2-1 286-410, looked up) EIEATLERLKKLERDLSFKEQELKERERRLKMWEQKLTEQSNTPLLPSFEIGAWTEDDVYCWVQQLVRKGDSSAEMSVYASLFKENNITGKRLLLLEEEDLKDMGIVSKGHIIHFKSAIEKLTHD",stoichiometry N,2
